# Test results from US20090028872A1 (Bristol-Myers Squibb, published 2009).
# What was measured:
# [1] = target: T1, human CD70 expressed on the cell surface (human, UniProt P32970 1-193); experiment: cell-based or functional assay
# T1 sequence (looked up): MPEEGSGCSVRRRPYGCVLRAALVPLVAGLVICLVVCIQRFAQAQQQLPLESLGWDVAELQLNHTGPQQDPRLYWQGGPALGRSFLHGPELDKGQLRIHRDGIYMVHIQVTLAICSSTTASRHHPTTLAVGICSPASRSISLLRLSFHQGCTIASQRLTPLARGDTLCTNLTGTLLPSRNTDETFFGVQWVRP
# [2] = target: T1, human CD70 expressed on the cell surface; experiment: flow cytometry titration on A498 cells, PE anti-human IgG
# Method: Binding of the anti-CD70 human monoclonal antibodies was assessed by incubating 5×10⁵ cells with antibody at a starting concentration of 50 μg/ml and serially diluting the antibody at a 1:3 dilution. The cells were washed and binding was detected with a PE-labeled anti-human IgG Ab. Flow cytometric analyses were performed using a FACSCalibur flow cytometry (Becton Dickinson, San Jose, Calif.).
# [3] = target: human CD16 on effector cells (human, UniProt P08637 17-254); experiment: cell-based or functional assay
# human CD16 on effector cells, sequence (P08637 17-254): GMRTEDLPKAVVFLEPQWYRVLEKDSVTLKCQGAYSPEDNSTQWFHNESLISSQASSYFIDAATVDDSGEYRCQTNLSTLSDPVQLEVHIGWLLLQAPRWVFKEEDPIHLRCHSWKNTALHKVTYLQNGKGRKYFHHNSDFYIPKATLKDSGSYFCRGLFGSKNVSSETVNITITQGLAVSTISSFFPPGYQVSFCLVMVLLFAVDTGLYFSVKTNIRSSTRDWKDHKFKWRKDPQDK
Binder,"EC50 of decrease in ^3H-thymidine incorporation, Hum-Zap internalization assay, 786-O cells [1]",EC50 (read off the curve) [2],"amount of anti-CD16 3G8 needed to reverse inhibition, 2H5NF against 2H5 [3]"
"anti-CD70 human monoclonal antibody 2H5 (antibody, V domains shown, Fully human IgG with kappa light chain, from a hybridoma; human IgG1 isotype controls were used; also called HuMAb 2H5) VH: QVQLVESGGGVVQPGRSLRLSCAASGFTFSSYIMHWVRQAPGKGLEWVAVISYDGRNKYYADSVKGRFTISRDNSKNTLYLQMNSLRAEDTAVYYCARDTDGYDFDYWGQGTLVTVSS VL: EIVLTQSPATLSLSPGERATLSCRASQSVSSYLAWYQQKPGQAPRLLIYDASNRATGIPARFSGSGSGTDFTLTISSLEPEDFAVYYCQQRTNWPLTFGGGTKVEIK",0.942 nM,~7 nM,–
"non-fucosylated anti-CD70 human monoclonal antibody 2H5 (antibody, V domains shown, antibody lacking in fucosyl residues (expressed in FUT8-deficient CHO cell line Ms704-PF)) VH: QVQLVESGGGVVQPGRSLRLSCAASGFTFSSYIMHWVRQAPGKGLEWVAVISYDGRNKYYADSVKGRFTISRDNSKNTLYLQMNSLRAEDTAVYYCARDTDGYDFDYWGQGTLVTVSS VL: EIVLTQSPATLSLSPGERATLSCRASQSVSSYLAWYQQKPGQAPRLLIYDASNRATGIPARFSGSGSGTDFTLTISSLEPEDFAVYYCQQRTNWPLTFGGGTKVEIK",–,–,~1000 fold
